Article PMC10773802, “Electrochemical aptasensor fabricated by anchoring recognition aptamers and immobilizing redox probes on bipolar silica nanochannel array for reagentless detection of carbohydrate antigen 15-3”

Target: carbohydrate antigen 15-3 (CA15-3) (UniProt P15941 24-1097)
Test: electrochemical aptasensor (DPV, CV, EIS); aptamer immobilized on bp-SNA/ITO with Co(bpy)3 2+ probe, BSA-blocked; linear 0.001-500 U/mL, LOD 0.13 mU/mL (not a Kd); 0.01 M PBS (sodium phosphate), pH 7.4; CA15-3 incubation 80 min at 4 °C; BSA-blocked electrode (0.1 wt%)
Details: protein: commercial

carbohydrate antigen 15-3 (CA15-3), sequence (P15941 24-1097): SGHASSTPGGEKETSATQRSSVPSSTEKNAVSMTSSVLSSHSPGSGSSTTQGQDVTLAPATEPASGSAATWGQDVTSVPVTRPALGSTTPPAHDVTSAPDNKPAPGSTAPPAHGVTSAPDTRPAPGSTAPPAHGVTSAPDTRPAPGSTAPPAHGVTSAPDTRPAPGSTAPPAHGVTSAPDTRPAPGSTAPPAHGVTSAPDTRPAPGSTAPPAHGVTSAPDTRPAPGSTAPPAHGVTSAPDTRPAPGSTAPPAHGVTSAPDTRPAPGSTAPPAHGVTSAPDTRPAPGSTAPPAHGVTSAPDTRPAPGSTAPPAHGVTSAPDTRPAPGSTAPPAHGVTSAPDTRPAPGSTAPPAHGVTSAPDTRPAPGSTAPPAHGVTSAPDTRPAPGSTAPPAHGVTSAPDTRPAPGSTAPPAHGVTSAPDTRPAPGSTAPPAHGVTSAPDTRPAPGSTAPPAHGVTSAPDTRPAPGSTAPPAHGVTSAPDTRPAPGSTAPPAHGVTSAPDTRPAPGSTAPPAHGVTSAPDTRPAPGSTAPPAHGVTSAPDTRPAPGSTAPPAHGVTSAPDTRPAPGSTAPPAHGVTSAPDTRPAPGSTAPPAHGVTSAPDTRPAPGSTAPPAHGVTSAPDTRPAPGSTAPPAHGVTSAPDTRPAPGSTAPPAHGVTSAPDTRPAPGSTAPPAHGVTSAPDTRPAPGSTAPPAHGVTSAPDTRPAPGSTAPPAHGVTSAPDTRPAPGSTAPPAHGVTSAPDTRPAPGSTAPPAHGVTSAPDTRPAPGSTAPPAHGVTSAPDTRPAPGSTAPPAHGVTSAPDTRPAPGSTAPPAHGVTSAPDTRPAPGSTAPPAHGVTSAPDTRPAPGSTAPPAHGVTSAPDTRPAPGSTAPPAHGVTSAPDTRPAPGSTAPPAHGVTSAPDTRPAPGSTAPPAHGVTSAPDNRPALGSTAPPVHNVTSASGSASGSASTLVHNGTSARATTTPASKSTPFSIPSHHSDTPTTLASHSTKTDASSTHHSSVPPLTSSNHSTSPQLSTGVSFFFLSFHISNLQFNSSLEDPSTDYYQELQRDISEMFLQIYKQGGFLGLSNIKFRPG

CTTCCTCCCTGAAGTGAATATGACAGATCACAACTTCCCTCCTTC (ssDNA, 5'-NH2) [CA15-3 aptamer (amino-modified)]: binds.
